The values below come from the supplement of paper PMC10724198.

In this data set the test system is Saccharomyces cerevisiae. In words: protein stability index of tFT-peptide fusion (C-terminal peptide) (PSI (0-1 scale)); higher = more stable (slower turnover). Particulars: temperature: 30 C. As for the experimental part: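 MPS profiling in S. cerevisiae of the yeast C-terminome library: the last 12 aa of each annotated ORF are fused to the C-terminus of a sfGFP-mCherry timer, after a GGGS linker. Cells are FACS-sorted into 8 mCherry/sfGFP bins and deep-sequenced. PSI runs from 0 (unstable) to 1 (stable); wild type and das1Δ backgrounds, two technical replicates each.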

[1] abbreviates: genetic background: das1 deletion.

± gives the standard deviation of the averaged measurements.

In the case of NIRIVNGLQNTR [TIM8 C-terminal 12 aa], the protein stability index under setting [1] was 0.712 ± 0.014 and the protein stability index (genetic background: wild type) was determined as 0.669 ± 0.011.

In the case of NKIANFVKNAKK [TRP1 C-terminal 12 aa], the protein stability index was found to be 0.708 ± 0.02 under setting [1] and 0.701 ± 0.029 (genetic background: wild type).

As for NKLKTLLAKIFD [IPI1 C-terminal 12 aa], the protein stability index by setting is: under setting [1], 0.708 ± 0.02; (genetic background: wild type) 0.699 ± 0.053.

NPGFIVEKRTID [MRPL33 C-terminal 12 aa]: the protein stability index worked out at 0.697 ± 0.035 under setting [1] and 0.737 ± 0.0098 (genetic background: wild type).

As to NPKNLINDVRRT [CVM1 C-terminal 12 aa], the protein stability index is, setting by setting: under setting [1], 0.704 ± 0.011; (genetic background: wild type) 0.635 ± 0.025.

In the case of NPPISVSVTGDE [SRT1 C-terminal 12 aa], the protein stability index under setting [1] is 0.687 ± 0.0084 and the protein stability index (genetic background: wild type) turned out to be 0.6978 ± 0.0036.

For NPWGGYSQVQSK [COX5A C-terminal 12 aa], the protein stability index amounted to 0.728 ± 0.02 under setting [1] and 0.688 ± 0.018 (genetic background: wild type).

For the sequence NQGSDVSFNEED [TOP2 C-terminal 12 aa], the protein stability index is, setting by setting: under setting [1], 0.709 ± 0.02; (genetic background: wild type) 0.685 ± 0.045.

NQIIQARLKDLE [DNF3 C-terminal 12 aa]: the protein stability index by setting is: under setting [1], 0.686 ± 0.021; (genetic background: wild type) 0.6964 ± 0.0035.

Turning to NQKKKFKMEFRG [SAP30 C-terminal 12 aa], the protein stability index reads like this: under setting [1], 0.6956 ± 0.0027; (genetic background: wild type) 0.665 ± 0.0075.

For the sequence NRKIARMRHSKR [NUP1 C-terminal 12 aa], the protein stability index came to 0.706 ± 0.022 under setting [1] and 0.7119 ± 0.007 (genetic background: wild type).

For NRSSKIVSIRED [CPR8 C-terminal 12 aa], the protein stability index under setting [1] is 0.702 ± 0.03 and the protein stability index (genetic background: wild type) amounted to 0.714 ± 0.028.

With NTDHKAGRSHLQ [PTC2 C-terminal 12 aa], the protein stability index is, setting by setting: under setting [1], 0.713 ± 0.013; (genetic background: wild type) 0.668 ± 0.038.

In the case of NTEPPEAPAATN [AFG3 C-terminal 12 aa], the protein stability index by setting is: under setting [1], 0.73 ± 0.032; (genetic background: wild type) 0.668 ± 0.028.

Regarding NTGSKKSVPTSS [AQY3 C-terminal 12 aa], the protein stability index reads like this: under setting [1], 0.7037 ± 0.0017; (genetic background: wild type) 0.732 ± 0.068.

In turn, NTTHYNDTLLKQ [PHO3 C-terminal 12 aa] registered a protein stability index under setting [1] of 0.738 ± 0.0097 and a protein stability index (genetic background: wild type) of 0.6619 ± 0.0058.

In turn, NYLVYHIEEENH [MNN9 C-terminal 12 aa] displayed a protein stability index under setting [1] of 0.673 ± 0.031 and a protein stability index (genetic background: wild type) of 0.645 ± 0.052.

In the case of PAAWRALTQYIS [PTH1 C-terminal 12 aa], the protein stability index reads like this: under setting [1], 0.7186 ± 0.0024; (genetic background: wild type) 0.348 ± 0.029.

For the sequence PCALYFKDHTAY [HUA2 C-terminal 12 aa], the protein stability index reads like this: under setting [1], 0.699 ± 0.021; (genetic background: wild type) 0.7209 ± 0.0011.

With PDDFEFGDDDFM [HCR1 C-terminal 12 aa], the protein stability index amounted to 0.712 ± 0.031 under setting [1] and 0.763 ± 0.041 (genetic background: wild type).

Turning to “PEHPGNKRAGSG [YER145C-A C-terminal 12 aa]”, the protein stability index reads like this: under setting [1], 0.6885 ± 0.00081; (genetic background: wild type) 0.6979 ± 0.0024.

In the case of PFDYSDIPAADI [GPI10 C-terminal 12 aa], the protein stability index stood at 0.714 ± 0.023 under setting [1] and 0.698 ± 0.019 (genetic background: wild type).

PFEDKFEIHDER [OPY2 C-terminal 12 aa]: the protein stability index is 0.74255 ± 0.00063 under setting [1] and 0.7692 ± 0.00091 (genetic background: wild type).

With PIDPKAFTFDSR [YCL012C C-terminal 12 aa], the protein stability index by setting is: under setting [1], 0.73549 ± 0.00064; (genetic background: wild type) 0.73 ± 0.016.

Regarding PIQDFIFNLVGE [VTC3 C-terminal 12 aa], the protein stability index by setting is: under setting [1], 0.687 ± 0.0086; (genetic background: wild type) 0.6981 ± 0.0027.

Regarding PKSFVPRDIEKK [YGR265W C-terminal 12 aa], the protein stability index was found to be 0.695 ± 0.018 under setting [1] and 0.701 ± 0.056 (genetic background: wild type).

With PLFADYLNKNLN [KTI12 C-terminal 12 aa], the protein stability index by setting is: under setting [1], 0.7162 ± 0.0014; (genetic background: wild type) 0.671 ± 0.014.

For the sequence PLQWLSTWDIAP [PMT6 C-terminal 12 aa], the protein stability index reads like this: under setting [1], 0.787 ± 0.02; (genetic background: wild type) 0.757 ± 0.021.

As for PLSYDPLGNLIR [TSR3 C-terminal 12 aa], the protein stability index by setting is: under setting [1], 0.7339 ± 0.0027; (genetic background: wild type) 0.728 ± 0.061.

As to PLTLISLLFAFI [YPS1 C-terminal 12 aa], the protein stability index runs as follows: under setting [1], 0.619 ± 0.021; (genetic background: wild type) 0.612 ± 0.0015.

PNEFLRDQSTDI [APL5 C-terminal 12 aa]: the protein stability index runs as follows: under setting [1], 0.707 ± 0.031; (genetic background: wild type) 0.66 ± 0.02.

PQCGQVLSKGST [YGL132W C-terminal 12 aa]: the protein stability index is, setting by setting: under setting [1], 0.703 ± 0.0092; (genetic background: wild type) 0.69 ± 0.063.

As to PQMARKQRGHIG [SDS23 C-terminal 12 aa], the protein stability index reads like this: under setting [1], 0.678 ± 0.024; (genetic background: wild type) 0.681 ± 0.0087.

As to PSGNIVMERLDE [UBX3 C-terminal 12 aa], the protein stability index turned out to be 0.6901 ± 0.0013 under setting [1] and 0.64 ± 0.021 (genetic background: wild type).

As to PSIARILEFMQS [SAY1 C-terminal 12 aa], the protein stability index is 0.729 ± 0.013 under setting [1] and 0.654 ± 0.09 (genetic background: wild type).

Take PVFTASQLRFAW [ESA1 C-terminal 12 aa]: the protein stability index came out at 0.738 ± 0.018 under setting [1] and 0.7148 ± 0.0046 (genetic background: wild type).

As for PVGAGNEPINPE [URN1 C-terminal 12 aa], the protein stability index is, setting by setting: under setting [1], 0.684 ± 0.013; (genetic background: wild type) 0.704 ± 0.074.

Regarding “PVTAIALLEARR [YER190C-A C-terminal 12 aa]”, the protein stability index was 0.6783 ± 0.005 under setting [1] and 0.65 ± 0.01 (genetic background: wild type).

On to PYNFIQLLHQGL [HOF1 C-terminal 12 aa], for which the protein stability index is, setting by setting: under setting [1], 0.725 ± 0.011; (genetic background: wild type) 0.709 ± 0.012.

With QAYIYIYIHIVN [EST2 C-terminal 12 aa], the protein stability index was 0.195 ± 0.0094 under setting [1] and 0.0717 ± 0.017 (genetic background: wild type).

On to QEEEEDVATDSE [YRO2 C-terminal 12 aa], for which the protein stability index stood at 0.677 ± 0.014 under setting [1] and 0.711 ± 0.034 (genetic background: wild type).

As to QEIQKKPSQQVS [BIG1 C-terminal 12 aa], the protein stability index came to 0.698 ± 0.0083 under setting [1] and 0.683 ± 0.066 (genetic background: wild type).

As to QFFLAPKFNDEE [POL30 C-terminal 12 aa], the protein stability index was found to be 0.712 ± 0.032 under setting [1] and 0.705 ± 0.023 (genetic background: wild type).

With QFQTLNNLYFAQ [IME4 C-terminal 12 aa], the protein stability index is, setting by setting: under setting [1], 0.715 ± 0.02; (genetic background: wild type) 0.673 ± 0.044.

Take QGHGPVSPSPTK [PTM1 C-terminal 12 aa]: the protein stability index runs as follows: under setting [1], 0.701 ± 0.022; (genetic background: wild type) 0.723 ± 0.086.

Take QGPRPGNWDQED [CCT8 C-terminal 12 aa]: the protein stability index is, setting by setting: under setting [1], 0.7177 ± 0.0017; (genetic background: wild type) 0.678 ± 0.016.

Take QGYKPNQSDRYY [PIN2 C-terminal 12 aa]: the protein stability index was 0.68 ± 0.013 under setting [1] and 0.711 ± 0.044 (genetic background: wild type).

Consider QHYDEYYHELTN [PHO8 C-terminal 12 aa], for which the protein stability index by setting is: under setting [1], 0.6964 ± 0.0064; (genetic background: wild type) 0.68262 ± 0.00046.

Consider QIEWVDINRVTY [RAD50 C-terminal 12 aa], for which the protein stability index was found to be 0.732 ± 0.014 under setting [1] and 0.735 ± 0.052 (genetic background: wild type).

QIFSLPAVTYNK [REC102 C-terminal 12 aa]: the protein stability index is 0.693 ± 0.018 under setting [1] and 0.743 ± 0.055 (genetic background: wild type).

Turning to QIITISNANSHA [MBP1 C-terminal 12 aa], the protein stability index by setting is: under setting [1], 0.705 ± 0.026; (genetic background: wild type) 0.688 ± 0.038.

Take “QKENQYHPRRNQ [YML009W-B C-terminal 12 aa]”: the protein stability index is 0.7123 ± 0.0032 under setting [1] and 0.691 ± 0.039 (genetic background: wild type).

Consider QLEEELMDMLDD [FCP1 C-terminal 12 aa], for which the protein stability index by setting is: under setting [1], 0.674 ± 0.01; (genetic background: wild type) 0.6692 ± 0.0016.

Regarding QLESDPPPCDDY [RIM8 C-terminal 12 aa], the protein stability index under setting [1] was 0.7171 ± 0.0053 and the protein stability index (genetic background: wild type) is 0.689 ± 0.039.

For QLKACQEAARQY [MIX17 C-terminal 12 aa], the protein stability index is, setting by setting: under setting [1], 0.675 ± 0.025; (genetic background: wild type) 0.66 ± 0.031.

Turning to QLKKSKVSVELE [MAK11 C-terminal 12 aa], the protein stability index reads like this: under setting [1], 0.6803 ± 0.0023; (genetic background: wild type) 0.687 ± 0.047.

Consider QNADEESSSEEE [GCD6 C-terminal 12 aa], for which the protein stability index reads like this: under setting [1], 0.694 ± 0.011; (genetic background: wild type) 0.6858 ± 0.0019.

Take QNEQLQMLSNSV [ATG31 C-terminal 12 aa]: the protein stability index runs as follows: under setting [1], 0.723 ± 0.028; (genetic background: wild type) 0.673 ± 0.046.

As for QNLDENVWRTPI [SSP1 C-terminal 12 aa], the protein stability index runs as follows: under setting [1], 0.692 ± 0.011; (genetic background: wild type) 0.672 ± 0.032.

QPYRSGTLGKRR [AIR2 C-terminal 12 aa]: the protein stability index is 0.674 ± 0.035 under setting [1] and 0.6998 ± 0.004 (genetic background: wild type).

Consider QREEALISLNDW [REV3 C-terminal 12 aa], for which the protein stability index was found to be 0.726 ± 0.016 under setting [1] and 0.713 ± 0.025 (genetic background: wild type).

As for QRELKKVDGTPI [RCI50 C-terminal 12 aa], the protein stability index came out at 0.6851 ± 0.0065 under setting [1] and 0.741 ± 0.0098 (genetic background: wild type).

In turn, QRIKQNNFLSQL [MRPL37 C-terminal 12 aa] showed a protein stability index under setting [1] of 0.7 ± 0.016 and a protein stability index (genetic background: wild type) of 0.731 ± 0.05.

Turning to QSADAAGVVKKH [GCN20 C-terminal 12 aa], the protein stability index by setting is: under setting [1], 0.683 ± 0.011; (genetic background: wild type) 0.726 ± 0.028.

As to QSLLDSLAKLQK [NAB3 C-terminal 12 aa], the protein stability index by setting is: under setting [1], 0.667 ± 0.009; (genetic background: wild type) 0.678 ± 0.022.

QSRYDNSRANRR [RAT1 C-terminal 12 aa]: the protein stability index by setting is: under setting [1], 0.7257 ± 0.0043; (genetic background: wild type) 0.731 ± 0.099.

For the sequence QTNSKPAAVSTN [PLN1 C-terminal 12 aa], the protein stability index runs as follows: under setting [1], 0.6745 ± 0.003; (genetic background: wild type) 0.668 ± 0.02.

With QTSAKISIRLLY [SER3 C-terminal 12 aa], the protein stability index by setting is: under setting [1], 0.6607 ± 0.00096; (genetic background: wild type) 0.582 ± 0.0062.
